# Earlier results in publication PMC12332068.
# Columns and labels:
# [1] = target: Bzz1 SH3#1-2 (Saccharomyces cerevisiae) (UniProt P38822); test: BLI
# [2] = target: Bzz1 SH3#1 (Saccharomyces cerevisiae) (UniProt P38822); test: BLI
substance,measurement,setting,value
Las17 300-422 (from UniProt Q12446),Kd,[1],0.087 µM
same,Kd,[2],7.5 µM
